In patent US20250339569A1 (3B PHARMACEUTICALS, published 2025):
Starred links: 1 amine or outer side, 2 acyl side, 3 side chain; linkers in the order of their positions; H or OH if unused. Positions of bridges follow the written chain, without caps; N, C: chain ends. Non-standard residues stand in square brackets, D forms with d. Primed or numbered codes have the meaning given here. *: point of attachment. Aph(2Ta5Sa)″ = 4-amino-L-phenylalanine, ring amine acylated by 5-sulfamoyl-thiophene-2-carboxylic acid, NS(=O)(=O)c1ccc(C(=O)Nc2ccc(C[C@H](N[*:1])C(=O)[*:2])cc2)s1; Af3(2Ta5Sa) = 3-amino-L-phenylalanine, ring amine acylated by 5-sulfamoyl-thiophene-2-carboxylic acid, NS(=O)(=O)c1ccc(C(=O)Nc2cccc(C[C@H](N[*:1])C(=O)[*:2])c2)s1; Aph(5SaPyr2) = 4-amino-L-phenylalanine, ring amine acylated by 5-sulfamoylpyridine-2-carboxylic acid, NS(=O)(=O)c1ccc(C(=O)Nc2ccc(C[C@H](N[*:1])C(=O)[*:2])cc2)nc1; Af3(3Ta5Sa) = 3-aminophenylalanine, ring amine acylated with 5-sulfamoylthiophene-3-carboxylic acid, NS(=O)(=O)c1cc(C(=O)Nc2cccc(C[C@H](N[*:1])C(=O)[*:2])c2)cs1; Aph(3MSaBz) = 4-aminophenylalanine, ring amine acylated with 3-(sulfamoylmethyl)benzoic acid, NS(=O)(=O)Cc1cccc(C(=O)Nc2ccc(C[C@H](N[*:1])C(=O)[*:2])cc2)c1; Af3(OPyAc) = 3-aminophenylalanine, ring amine acylated with 2-(2-oxopyridin-1-yl)acetic acid, O=C(Cn1ccccc1=O)Nc1cccc(C[C@H](N[*:1])C(=O)[*:2])c1; Af3(HO-Dga) = 3-aminophenylalanine, ring amine acylated with carboxymethoxy-acetic acid, O=C(COCC(=O)[*:3])Nc1cccc(C[C@H](N[*:1])C(=O)[*:2])c1; Aph(SaPr) = 4-amino-L-phenylalanine, ring amine acylated by 3-sulfamoylpropanoic acid, NS(=O)(=O)CCC(=O)Nc1ccc(C[C@H](N[*:1])C(=O)[*:2])cc1; 3MeBn″ = 3-methylbenzylidene, m-xylene unit (from alpha,alpha'-dibromo-m-xylene) joined to both Cys S by thioether linkages; Aph(HYDAc) = 4-amino-L-phenylalanine, ring amine acylated by hydantoin-5-acetic acid; Phe(3-NHCO(CH2)3SO2NH2) = N[C@@H](Cc1cccc(NC(=O)CCCS(N)(=O)=O)c1)C(=O)O; DOTA = O=C(O)CN1CCN(CC(=O)O)CCN(CC(=O)*)CCN(CC(=O)O)CC1; Phe(3,4-Cl2) = N[C@@H](Cc1ccc(Cl)c(Cl)c1)C(=O)O; Phe(3-CF3) = N[C@@H](Cc1cccc(C(F)(F)F)c1)C(=O)O; PPAc = 4-carboxymethyl piperazine linker; mXylylene = c1cc(C[*:1])cc(C[*:2])c1; N4AzPhCONH2 = not defined here; N4DazPhCN = not defined here; N6MeQuion = not defined here; NH3PhSa = not defined here; NH4PhSa = not defined here; N4Inda = not defined here; Pip = O=C(O)[C@@H]1CCCCN1; PPAc″ = not defined here; APAc = not defined here; Dap = NC[C@H](N)C(=O)O

How the values were obtained:
[1] = molecular target: T1, human carbonic anhydrase IX (CAIX) (human, UniProt Q16790 38-459); assay: FACS competition, HT-29 cells, tracer 3BP-4149; pIC50 category B: 7.1-8.0
Procedure: (§1) CAIX-expressing human HT-29 colorectal cancer cells (DSMZ, RRID: CVCL_0320) were cultured in McCoys's 5A modified medium (Biochrom, #F1015) including 10% fetal calf serum (FCS), 2 mM L-glutamine, 100 U/ml penicillin and 100 μg/mL streptomycin. Cells were detached with Accutase (Biolegend, #423201) and washed in FACS buffer (PBS including 1% FCS). Cells were diluted in FACS buffer to a final concentration of 500.000 cells per ml. 200 μL of the cell suspension were transferred to a u-shaped non-binding 96-well plate (Greiner) and cells were washed in ice-cold FACS buffer.
(§2) When biotinylated compounds were used an additional incubation step with 1 μg/mL APC-Streptavidin (Miltenyi; #130-106-791) in 50 μL FACS buffer for 30 minutes on ice was performed.
(§3) Cells were washed twice with ice-cold FACS buffer and analyzed in an Attune NxT flow cytometer (Thermo Fisher). Median fluorescence intensities (MFI) of the APC/Cy5-channel were calculated by Attune NxT software.

[2] = molecular target: T2, Fc-fusion protein of human carbonic anhydrase IX (human, UniProt Q16790 38-414); assay: SPR, captured hCAIX-Fc; t1/2 category A: >15.0 min
[3] = molecular target: T2, Fc-fusion protein of human carbonic …; assay: SPR, captured hCAIX-Fc; pKD category A: >8.0
[4] = molecular target: T2, Fc-fusion protein of human carbonic …; assay: SPR, captured hCAIX-Fc; t1/2 category B: 5.1-15.0 min
Procedure: (§4) Stock solutions of test compounds were prepared by dissolving each compound in DMSO. DMSO stock solution were diluted 1:1000 in Running Buffer without DMSO. […] SPR binding analyses were performed in Single Cycle Kinetic (SCK) mode at 25° C.
(§5) For each test compound, SPR raw data in the form of resonance units (RU) were plotted as sensorgrams using the Biacore™ T200 control software. The signal from the blank sensorgram was subtracted from that of the test compound sensorgram (blank corrected). The blank corrected sensorgram was corrected for baseline drift by subtracting the sensorgram of a SCK run without the test compound (running buffer only). […] Raw data and fit results were imported as text files in IDBS. The pKD value (negative decadic logarithm of dissociation constant) was calculated in the IDBS excel template.

[5] = molecular target: T1, human carbonic anhydrase IX (CAIX); assay: FACS competition, HT-29 cells, tracer 3BP-4149; pIC50 category A: >8.0
Procedure: as §1, §2, §3

[6] = molecular target: T2, Fc-fusion protein of human carbonic …; assay: SPR, captured hCAIX-Fc; t1/2 category C: 2.1-5.0 min
Procedure: as §4, §5

| Binder | pIC50 [1] | t1/2 (half-life of the complex, SPR) [2] | pKD [3] | t1/2 (half-life of the complex, SPR) [4] | pIC50 [5] | t1/2 (half-life of the complex, SPR) [6] |
| --- | --- | --- | --- | --- | --- | --- |
| {DOTA-APAc}-VYCE[dP]D[Aph(HYDAc)]LTWSC-NH2 (linker 3-12 via mXylylene; reading uncertain) [3BP-4458] | 7.1 to 8 pic50 | – | – | – | – | – |
| {DOTA-APAc}-VYCE[dP]E(N4Inda)WLTWSC-NH2 (linker 3-12 via mXylylene; reading uncertain) [3BP-4387] | 7.1 to 8 pic50 | > 15 min | > 8 pkd | – | – | – |
| {DOTA-APAc}-VDCE[dP]D[Phe(3-CF3)]LTW[Dap]C-NH2 (lactam 2-11; linker 3-12 via mXylylene; reading uncertain) [3BP-4440] | – | – | > 8 pkd | 5.1 to 15 min | > 8 pic50 | – |
| {DOTA}-DCE[dP]D[Phe(3-NHCO(CH2)3SO2NH2)]LTW[Dap]C-NH2 (lactam 1-10; linker 2-11 via mXylylene; SMILES CC(C)C[C@@H]1NC(=O)[C@H](Cc2cccc(NC(=O)CCCS(N)(=O)=O)c2)NC(=O)[C@H](CC(=O)O)NC(=O)[C@H]2CCCN2C(=O)[C@H](CCC(=O)O)NC(=O)[C@@H]2CSCc3cccc(c3)CSC[C@@H](C(N)=O)NC(=O)[C@H](CNC(=O)C[C@H](NC(=O)CN3CCN(CC(=O)O)CCN(CC(=O)O)CCN(CC(=O)O)CC3)C(=O)N2)NC(=O)[C@H](Cc2c[nH]c3ccccc23)NC(=O)[C@H]([C@@H](C)O)NC1=O) [3BP-4488] | – | > 15 min | > 8 pkd | – | > 8 pic50 | – |
| {DOTA-APAc}-VYCE[dP]D[Aph(3MSaBz)]LTWSC-NH2 (linker 3-12 via mXylylene; reading uncertain) [3BP-4399] | 7.1 to 8 pic50 | – | – | – | – | – |
| {DOTA-APAc}-VYCE[dP]D[Af3(3Ta5Sa)]LTWSC-NH2 (linker 3-12 via mXylylene; reading uncertain) [3BP-4412] | – | > 15 min | > 8 pkd | – | > 8 pic50 | – |
| {DOTA-APAc}-VDCE[dP]D[Phe(3,4-Cl2)]LTW[Dap]C-NH2 (lactam 2-11; linker 3-12 via mXylylene; reading uncertain) [3BP-4439] | – | – | > 8 pkd | 5.1 to 15 min | > 8 pic50 | – |
| {DOTA-APAc}-VYCE[dP]E(N4AzPhCONH2)WLTWSC-NH2 (linker 3-12 via mXylylene; reading uncertain) [3BP-4388] | 7.1 to 8 pic50 | – | – | – | – | – |
| {DOTA-APAc}-VYCE[dP]E(NH3PhSa)WLTWSC-NH2 (linker 3-12 via mXylylene; reading uncertain) [3BP-4441] | 7.1 to 8 pic50 | > 15 min | > 8 pkd | – | – | – |
| {DOTA-APAc}-VYCE[dP]E(NH4PhSa)WLTWSC-NH2 (linker 3-12 via mXylylene; reading uncertain) [3BP-4442] | 7.1 to 8 pic50 | > 15 min | > 8 pkd | – | – | – |
| {DOTA-PPAc″}-QCE[dP]D[Aph(5SaPyr2)]LTWSC-NH2 (linker 2-11 via mXylylene; reading uncertain) [3BP-4480] | 7.1 to 8 pic50 | – | – | – | – | 2.1 to 5 min |
| {DOTA}-[Pip]YCE[dP]D[Phe(3-NHCO(CH2)3SO2NH2)]LTWSC-NH2 (linker 3-12 via mXylylene; SMILES CC(C)C[C@@H]1NC(=O)[C@H](Cc2cccc(NC(=O)CCCS(N)(=O)=O)c2)NC(=O)[C@H](CC(=O)O)NC(=O)[C@H]2CCCN2C(=O)[C@H](CCC(=O)O)NC(=O)[C@@H](NC(=O)[C@H](Cc2ccc(O)cc2)NC(=O)[C@@H]2CCCCN2C(=O)CN2CCN(CC(=O)O)CCN(CC(=O)O)CCN(CC(=O)O)CC2)CSCc2cccc(c2)CSC[C@@H](C(N)=O)NC(=O)[C@H](CO)NC(=O)[C@H](Cc2c[nH]c3ccccc23)NC(=O)[C@H]([C@@H](C)O)NC1=O) [3BP-4456] | 7.1 to 8 pic50 | > 15 min | > 8 pkd | – | – | – |
| {DOTA-APAc}-VYCE[dP]D[Af3(HO-Dga)]LTWSC-NH2 (linker 3-12 via 3MeBn″; reading uncertain) [3BP-4368] | 7.1 to 8 pic50 | – | > 8 pkd | – | – | 2.1 to 5 min |
| {DOTA-APAc}-VDCE[dP]D[Phe(3-NHCO(CH2)3SO2NH2)]LTW[Dap]C-NH2 (lactam 2-11; linker 3-12 via mXylylene; reading uncertain) [3BP-4445] | – | > 15 min | > 8 pkd | – | > 8 pic50 | – |
| {DOTA-PPAc″}-YCE[dP]D[Aph(2Ta5Sa)″]LTWSC-NH2 (linker 2-11 via mXylylene; reading uncertain) [3BP-4457] | – | – | > 8 pkd | 5.1 to 15 min | > 8 pic50 | – |
| {DOTA-APAc}-VYCE[dP]E(N6MeQuion)WLTWSC-NH2 (linker 3-12 via mXylylene; reading uncertain) [3BP-4390] | 7.1 to 8 pic50 | – | – | – | – | – |
| {DOTA-APAc}-VYCE[dP]D[Af3(OPyAc)]LTWSC-NH2 (linker 3-12 via mXylylene; reading uncertain) [3BP-4370] | 7.1 to 8 pic50 | – | – | – | – | – |
| {DOTA}-DCE[dP]D[Aph(SaPr)]LTW[Dap]C-NH2 (lactam 1-10; linker 2-11 via mXylylene; SMILES CC(C)C[C@@H]1NC(=O)[C@H](Cc2ccc(NC(=O)CCS(N)(=O)=O)cc2)NC(=O)[C@H](CC(=O)O)NC(=O)[C@H]2CCCN2C(=O)[C@H](CCC(=O)O)NC(=O)[C@@H]2CSCc3cccc(c3)CSC[C@@H](C(N)=O)NC(=O)[C@H](CNC(=O)C[C@H](NC(=O)CN3CCN(CC(=O)O)CCN(CC(=O)O)CCN(CC(=O)O)CC3)C(=O)N2)NC(=O)[C@H](Cc2c[nH]c3ccccc23)NC(=O)[C@H]([C@@H](C)O)NC1=O) [3BP-4489] | – | > 15 min | > 8 pkd | – | > 8 pic50 | – |
| {DOTA-PPAc}-DCE[dP]D[Aph(SaPr)]LTW[Dap]C-NH2 (lactam 1-10; linker 2-11 via mXylylene) [3BP-4498] | 7.1 to 8 pic50 | > 15 min | > 8 pkd | – | – | – |
| {DOTA-APAc}-VYCE[dP]D[Af3(2Ta5Sa)]LTWSC-NH2 (linker 3-12 via mXylylene; reading uncertain) [3BP-4413] | – | > 15 min | > 8 pkd | – | > 8 pic50 | – |
| {DOTA-APAc}-VYCE[dP]E(N4DazPhCN)WLTWSC-NH2 (linker 3-12 via mXylylene; reading uncertain) [3BP-4389] | 7.1 to 8 pic50 | – | – | – | – | – |
